According to publication PMC10786891, “Massively parallel profiling of RNA-targeting CRISPR-Cas13d”:

T1: EsCas13d, nuclease-dead (Eubacterium siraeum, UniProt B0MS50, R295A;H300A;R849A;H854A)
T1 sequence: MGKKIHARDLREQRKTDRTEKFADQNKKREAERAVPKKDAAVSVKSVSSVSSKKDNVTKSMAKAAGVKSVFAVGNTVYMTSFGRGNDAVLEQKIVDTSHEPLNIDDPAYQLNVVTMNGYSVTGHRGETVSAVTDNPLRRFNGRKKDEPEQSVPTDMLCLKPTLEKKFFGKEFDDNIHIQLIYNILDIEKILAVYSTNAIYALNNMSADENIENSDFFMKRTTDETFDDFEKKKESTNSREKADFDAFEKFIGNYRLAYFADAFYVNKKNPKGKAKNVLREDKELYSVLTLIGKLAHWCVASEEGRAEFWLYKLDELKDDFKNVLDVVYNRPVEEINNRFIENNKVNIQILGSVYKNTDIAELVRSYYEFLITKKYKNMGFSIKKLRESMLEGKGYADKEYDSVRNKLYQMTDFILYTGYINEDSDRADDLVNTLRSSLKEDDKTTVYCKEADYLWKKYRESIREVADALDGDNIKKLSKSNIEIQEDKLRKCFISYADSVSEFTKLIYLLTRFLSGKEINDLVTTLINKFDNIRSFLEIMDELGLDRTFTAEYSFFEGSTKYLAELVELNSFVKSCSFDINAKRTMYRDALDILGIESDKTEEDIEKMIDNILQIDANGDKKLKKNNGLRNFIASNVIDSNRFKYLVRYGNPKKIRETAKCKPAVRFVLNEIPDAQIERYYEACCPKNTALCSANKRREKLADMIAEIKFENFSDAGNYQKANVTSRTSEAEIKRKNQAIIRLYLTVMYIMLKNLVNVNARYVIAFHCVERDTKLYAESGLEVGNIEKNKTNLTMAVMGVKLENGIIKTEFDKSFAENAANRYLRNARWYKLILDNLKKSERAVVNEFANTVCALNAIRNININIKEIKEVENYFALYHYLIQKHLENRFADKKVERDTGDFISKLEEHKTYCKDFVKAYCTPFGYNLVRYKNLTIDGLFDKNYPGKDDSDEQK

B1: target 1 insC 3' of 10,insA 3' of 5 (mixed)
RNA 1: CACCCGUGCAAAAAUGCAGGGGUCUAAAACUGAGCGGAUAACCUCUCUAUGG
RNA 2: GGGAAUGGAUCCACAUCUACGAAUUCGUACCAUAGAGAGGUUCAUCCGACUCACCGAGAUCGGAAGAGCACACGU
B2: target 1 G12A,A16G (mixed)
RNA 1: CACCCGUGCAAAAAUGCAGGGGUCUAAAACUGAGCGGAUAACCUCUCUAUGG
RNA 2: GGGAAUGGAUCCACAUCUACGAAUUCGUACCAUAGGGAGAUUAUCCGCUCACCGAGAUCGGAAGAGCACACGU
B3: target 1 insA 3' of 21,insA 3' of 11 (mixed)
RNA 1: CACCCGUGCAAAAAUGCAGGGGUCUAAAACUGAGCGGAUAACCUCUCUAUGG
RNA 2: GGGAAUGGAUCCACAUCUACGAAUUCGUACCAAUAGAGAGGUAUAUCCGCUCACCGAGAUCGGAAGAGCACACGU
B4: target 1 C7G,U11A (mixed)
RNA 1: CACCCGUGCAAAAAUGCAGGGGUCUAAAACUGAGCGGAUAACCUCUCUAUGG
RNA 2: GGGAAUGGAUCCACAUCUACGAAUUCGUACCAUAGAGAGGAUAUGCGCUCACCGAGAUCGGAAGAGCACACGU
B5: target 1 del11,del22 (mixed)
RNA 1: CACCCGUGCAAAAAUGCAGGGGUCUAAAACUGAGCGGAUAACCUCUCUAUGG
RNA 2: GGGAAUGGAUCCACAUCUACGAAUUCGUACAUAGAGAGGUAUCCGCUCACCGAGAUCGGAAGAGCACACGU
B6: target 1 insU 3' of 18,insU 3' of 1 (mixed)
RNA 1: CACCCGUGCAAAAAUGCAGGGGUCUAAAACUGAGCGGAUAACCUCUCUAUGG
RNA 2: GGGAAUGGAUCCACAUCUACGAAUUCGUACCAUAUGAGAGGUUAUCCGCUCAUCCGAGAUCGGAAGAGCACACGU
B7: target 1 complement block 3-5 (mixed)
RNA 1: CACCCGUGCAAAAAUGCAGGGGUCUAAAACUGAGCGGAUAACCUCUCUAUGG
RNA 2: GGGAAUGGAUCCACAUCUACGAAUUCGUACCAUAGAGAGGUUAUCCCGACACCGAGAUCGGAAGAGCACACGU
B8: target 1 C2A,C22A (mixed)
RNA 1: CACCCGUGCAAAAAUGCAGGGGUCUAAAACUGAGCGGAUAACCUCUCUAUGG
RNA 2: GGGAAUGGAUCCACAUCUACGAAUUCGUAACAUAGAGAGGUUAUCCGCUAACCGAGAUCGGAAGAGCACACGU
B9: target 1 insG 3' of 19,insA 3' of 15 (mixed)
RNA 1: CACCCGUGCAAAAAUGCAGGGGUCUAAAACUGAGCGGAUAACCUCUCUAUGG
RNA 2: GGGAAUGGAUCCACAUCUACGAAUUCGUACCAUGAGAGAAGGUUAUCCGCUCACCGAGAUCGGAAGAGCACACGU
B10: target 1 G17U,U19C (mixed)
RNA 1: CACCCGUGCAAAAAUGCAGGGGUCUAAAACUGAGCGGAUAACCUCUCUAUGG
RNA 2: GGGAAUGGAUCCACAUCUACGAAUUCGUACCACAUAGAGGUUAUCCGCUCACCGAGAUCGGAAGAGCACACGU
B11: target 1 U10G,A14C (mixed)
RNA 1: CACCCGUGCAAAAAUGCAGGGGUCUAAAACUGAGCGGAUAACCUCUCUAUGG
RNA 2: GGGAAUGGAUCCACAUCUACGAAUUCGUACCAUAGAGCGGUGAUCCGCUCACCGAGAUCGGAAGAGCACACGU
B12: target 1 C2G,U11C (mixed)
RNA 1: CACCCGUGCAAAAAUGCAGGGGUCUAAAACUGAGCGGAUAACCUCUCUAUGG
RNA 2: GGGAAUGGAUCCACAUCUACGAAUUCGUACCAUAGAGAGGCUAUCCGCUGACCGAGAUCGGAAGAGCACACGU
B13: target 1 insC 3' of 14,insG 3' of 7 (mixed)
RNA 1: CACCCGUGCAAAAAUGCAGGGGUCUAAAACUGAGCGGAUAACCUCUCUAUGG
RNA 2: GGGAAUGGAUCCACAUCUACGAAUUCGUACCAUAGAGACGGUUAUCGCGCUCACCGAGAUCGGAAGAGCACACGU
B14: target 1 G12C,C22U (mixed)
RNA 1: CACCCGUGCAAAAAUGCAGGGGUCUAAAACUGAGCGGAUAACCUCUCUAUGG
RNA 2: GGGAAUGGAUCCACAUCUACGAAUUCGUAUCAUAGAGAGCUUAUCCGCUCACCGAGAUCGGAAGAGCACACGU
B15: target 1 U8G,A9G (mixed)
RNA 1: CACCCGUGCAAAAAUGCAGGGGUCUAAAACUGAGCGGAUAACCUCUCUAUGG
RNA 2: GGGAAUGGAUCCACAUCUACGAAUUCGUACCAUAGAGAGGUUGGCCGCUCACCGAGAUCGGAAGAGCACACGU
B16: target 1 complement block 9-12 (mixed)
RNA 1: CACCCGUGCAAAAAUGCAGGGGUCUAAAACUGAGCGGAUAACCUCUCUAUGG
RNA 2: GGGAAUGGAUCCACAUCUACGAAUUCGUACCAUAGAGAGCAAUUCCGCUCACCGAGAUCGGAAGAGCACACGU
B17: target 1 del13 (mixed)
RNA 1: CACCCGUGCAAAAAUGCAGGGGUCUAAAACUGAGCGGAUAACCUCUCUAUGG
RNA 2: GGGAAUGGAUCCACAUCUACGAAUUCGUACCAUAGAGAGUUAUCCGCUCACCGAGAUCGGAAGAGCACACGU
B18: target 1 insU 3' of 9,insU 3' of 6 (mixed)
RNA 1: CACCCGUGCAAAAAUGCAGGGGUCUAAAACUGAGCGGAUAACCUCUCUAUGG
RNA 2: GGGAAUGGAUCCACAUCUACGAAUUCGUACCAUAGAGAGGUUAUUCCUGCUCACCGAGAUCGGAAGAGCACACGU
B19: target 1 G12U,A18G (mixed)
RNA 1: CACCCGUGCAAAAAUGCAGGGGUCUAAAACUGAGCGGAUAACCUCUCUAUGG
RNA 2: GGGAAUGGAUCCACAUCUACGAAUUCGUACCAUGGAGAGUUUAUCCGCUCACCGAGAUCGGAAGAGCACACGU
B20: target 1 insU 3' of 12,insG 3' of 10 (mixed)
RNA 1: CACCCGUGCAAAAAUGCAGGGGUCUAAAACUGAGCGGAUAACCUCUCUAUGG
RNA 2: GGGAAUGGAUCCACAUCUACGAAUUCGUACCAUAGAGAGGUUUGAUCCGCUCACCGAGAUCGGAAGAGCACACGU
B21: target 1 C7A,A9G (mixed)
RNA 1: CACCCGUGCAAAAAUGCAGGGGUCUAAAACUGAGCGGAUAACCUCUCUAUGG
RNA 2: GGGAAUGGAUCCACAUCUACGAAUUCGUACCAUAGAGAGGUUGUACGCUCACCGAGAUCGGAAGAGCACACGU
B22: target 1 A1U,C6A (mixed)
RNA 1: CACCCGUGCAAAAAUGCAGGGGUCUAAAACUGAGCGGAUAACCUCUCUAUGG
RNA 2: GGGAAUGGAUCCACAUCUACGAAUUCGUACCAUAGAGAGGUUAUCAGCUCUCCGAGAUCGGAAGAGCACACGU
B23: target 1 insA 3' of 3,insG 3' of 2 (mixed)
RNA 1: CACCCGUGCAAAAAUGCAGGGGUCUAAAACUGAGCGGAUAACCUCUCUAUGG
RNA 2: GGGAAUGGAUCCACAUCUACGAAUUCGUACCAUAGAGAGGUUAUCCGCUACGACCGAGAUCGGAAGAGCACACGU
B24: target 1 complement block 6-9 (mixed)
RNA 1: CACCCGUGCAAAAAUGCAGGGGUCUAAAACUGAGCGGAUAACCUCUCUAUGG
RNA 2: GGGAAUGGAUCCACAUCUACGAAUUCGUACCAUAGAGAGGUUUAGGGCUCACCGAGAUCGGAAGAGCACACGU
B25: target 1 C6A (mixed)
RNA 1: CACCCGUGCAAAAAUGCAGGGGUCUAAAACUGAGCGGAUAACCUCUCUAUGG
RNA 2: GGGAAUGGAUCCACAUCUACGAAUUCGUACCAUAGAGAGGUUAUCAGCUCACCGAGAUCGGAAGAGCACACGU
B26: target 1 insU 3' of 7,insG 3' of 1 (mixed)
RNA 1: CACCCGUGCAAAAAUGCAGGGGUCUAAAACUGAGCGGAUAACCUCUCUAUGG
RNA 2: GGGAAUGGAUCCACAUCUACGAAUUCGUACCAUAGAGAGGUUAUCUCGCUCAGCCGAGAUCGGAAGAGCACACGU
B27: target 1 insC 3' of 19,insA 3' of 19 (mixed)
RNA 1: CACCCGUGCAAAAAUGCAGGGGUCUAAAACUGAGCGGAUAACCUCUCUAUGG
RNA 2: GGGAAUGGAUCCACAUCUACGAAUUCGUACCAUCAAGAGAGGUUAUCCGCUCACCGAGAUCGGAAGAGCACACGU
B28: target 1 insA 3' of 19,insC 3' of 11 (mixed)
RNA 1: CACCCGUGCAAAAAUGCAGGGGUCUAAAACUGAGCGGAUAACCUCUCUAUGG
RNA 2: GGGAAUGGAUCCACAUCUACGAAUUCGUACCAUAAGAGAGGUCUAUCCGCUCACCGAGAUCGGAAGAGCACACGU

target: T1, EsCas13d, nuclease-dead; test: crRNA (strand 1, pre-loaded); Mg2+; 40 mM Tris-HCl pH 7.5, 150 mM NaCl, 6 mM MgCl2, 1 mM DTT, 0.1% Tween-20, 0.2 mg/ml BSA; 25 C; 10 min per concentration, then washed; conditions: tags: His6-TwinStrep-SUMO cleaved; N-terminal SNAP kept (SNAP-Surface 488); label: 3' end held by stalled T7 RNA polymerase

| Binder | Kd [nM] |
| --- | --- |
| B1 | 10.4 ± 1.1 |
| B2 | 48 ± 5 |
| B3 | 36.6 ± 2.9 |
| B4 | 25 ± 4 |
| B5 | 78 ± 33 |
| B6 | 33 ± 1.8 |
| B7 | 10.5 ± 1 |
| B8 | 17.8 ± 3.3 |
| B9 | 56 ± 7 |
| B10 | 14.4 ± 0.8 |
| B11 | 94 ± 23 |
| B12 | 7.4 ± 0.4 |
| B13 | 41 ± 8 |
| B14 | 23.5 ± 1.5 |
| B15 | 19.1 ± 1.3 |
| B16 | 19.9 ± 2.7 |
| B17 | 8.6 ± 0.6 |
| B18 | 46 ± 6 |
| B19 | 78 ± 16 |
| B20 | 13.1 ± 0.5 |
| B21 | 11.5 ± 0.5 |
| B22 | 7.5 ± 0.4 |
| B23 | 7.05 ± 0.31 |
| B24 | 7.7 ± 0.5 |
| B25 | 6.17 ± 0.3 |
| B26 | 13.8 ± 0.6 |
| B27 | 31.3 ± 2.9 |
| B28 | 100 ± 40 |
